Results on one substance are retold here after publication PMC7583008.

Test [1] deals with GH2 β-mannosidase from Cellulomonas fimi (EC 3.2.1.25) (Cellulomonas fimi) (UniProt Q9XCV4).
The target is the same in test [2]. This is another data set of the same source.
The target is the same in test [3]. The source holds these as a separate data set.
For test [4] the target is unchanged. Briefly: enzyme inhibition titration (residual activity against inhibitor/enzyme ratio); fixed enzyme (11.8 μM) preincubated with increasing γC for 10 min at room temperature; 100 mM sodium maleate pH 6.0, BSA 1 mg/mL, 1 mM Zn2+, pNP-β-D-mannopyranoside 0.8 mM, 35 °C, 15 min; Ki calculated from the IC50 by the method of Cer et al., assuming competitive inhibition (Km 300 μM); stoichiometry from the x-intercept of the tangent line.

UniProt Q9XCV4, sequence (Q9XCV4 entry or part of it): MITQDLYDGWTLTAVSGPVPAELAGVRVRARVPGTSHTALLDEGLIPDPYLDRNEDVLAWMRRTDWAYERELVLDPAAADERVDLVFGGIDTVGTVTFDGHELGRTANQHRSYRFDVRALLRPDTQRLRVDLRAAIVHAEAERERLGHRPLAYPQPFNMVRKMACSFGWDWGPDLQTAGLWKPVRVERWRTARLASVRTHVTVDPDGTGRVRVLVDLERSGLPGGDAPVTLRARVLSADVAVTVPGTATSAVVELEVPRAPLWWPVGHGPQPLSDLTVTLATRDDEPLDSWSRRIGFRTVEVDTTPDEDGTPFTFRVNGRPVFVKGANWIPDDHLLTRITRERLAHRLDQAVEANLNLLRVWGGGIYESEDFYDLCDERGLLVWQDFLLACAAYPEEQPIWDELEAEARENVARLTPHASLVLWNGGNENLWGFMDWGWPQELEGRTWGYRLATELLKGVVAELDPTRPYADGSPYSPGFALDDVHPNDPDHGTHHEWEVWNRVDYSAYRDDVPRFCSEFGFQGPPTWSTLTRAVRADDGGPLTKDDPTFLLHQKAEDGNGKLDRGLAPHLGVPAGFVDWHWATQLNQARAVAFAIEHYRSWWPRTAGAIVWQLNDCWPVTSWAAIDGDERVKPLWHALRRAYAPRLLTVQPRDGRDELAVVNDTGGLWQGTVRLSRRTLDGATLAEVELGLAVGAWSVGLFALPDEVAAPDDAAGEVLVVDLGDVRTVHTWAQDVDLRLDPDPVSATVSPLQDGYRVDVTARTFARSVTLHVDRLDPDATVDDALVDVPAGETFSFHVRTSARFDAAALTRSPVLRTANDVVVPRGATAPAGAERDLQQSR

In the case of “Lupinus albus γ-conglutin (natural protein)”, the residual activity of GH2 β-mannosidase with γC at a molar ratio of 1:1 (pNP-β-D-mannopyranoside as substrate, no metal added) in test [1] amounted to 73%. Moreover, the residual activity of GH2 β-mannosidase with γC at a molar ratio of 1:1 in the presence of 1 mM Zn2+ in test [2] was determined as 55%. Besides, the IC50 of the inhibition of GH2 β-mannosidase activity by γC, as a molar ratio (11.8 μM enzyme, 1 mM Zn2+, pH 6.0) (molar ratio [γC]/[GH2]) in test [3] is 0.99. In test [4], the inhibitory constant (Ki) is 1.55 µM and the stoichiometry N (enzyme/inhibitor) was 1.14.

Usually Ki stands for the dissociation constant of the complex between target and ligand, obtained from inhibition or displacement.
